Target: human IL-15Rα (captured on the surface plasmon resonance sensor chip) (human) (UniProt Q13261)
Experiment: SPR

UniProt Q13261, sequence (Q13261 31-267): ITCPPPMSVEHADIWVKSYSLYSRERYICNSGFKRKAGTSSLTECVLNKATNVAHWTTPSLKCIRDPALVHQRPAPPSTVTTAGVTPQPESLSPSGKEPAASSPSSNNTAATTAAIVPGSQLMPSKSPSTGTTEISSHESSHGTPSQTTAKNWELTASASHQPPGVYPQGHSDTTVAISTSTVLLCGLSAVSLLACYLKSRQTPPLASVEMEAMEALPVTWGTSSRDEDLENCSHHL

Row | Substance | Kd | koff | kon
1 | NKTR-255, polyethylene glycol-conjugate of recombinant human interleukin-15 (from UniProt P40933 49-162) (ligand) | 0.085 nM | 6.7e-05 s⁻¹ | 780000 M⁻¹ s⁻¹
2 | recombinant human interleukin-15 (rhIL-15) (from UniProt P40933 49-162) (ligand) | 0.019 nM | 9.3e-05 s⁻¹ | 5.1e+06 M⁻¹ s⁻¹
